Bridges are numbered along the chain shown (N, C = ends). Where no end group is shown, it is not given here.
Target: guanylate cyclase C (human, UniProt P25092 24-1073)
Assay: cell-based or functional assay

guanylate cyclase C, sequence (P25092 24-1073): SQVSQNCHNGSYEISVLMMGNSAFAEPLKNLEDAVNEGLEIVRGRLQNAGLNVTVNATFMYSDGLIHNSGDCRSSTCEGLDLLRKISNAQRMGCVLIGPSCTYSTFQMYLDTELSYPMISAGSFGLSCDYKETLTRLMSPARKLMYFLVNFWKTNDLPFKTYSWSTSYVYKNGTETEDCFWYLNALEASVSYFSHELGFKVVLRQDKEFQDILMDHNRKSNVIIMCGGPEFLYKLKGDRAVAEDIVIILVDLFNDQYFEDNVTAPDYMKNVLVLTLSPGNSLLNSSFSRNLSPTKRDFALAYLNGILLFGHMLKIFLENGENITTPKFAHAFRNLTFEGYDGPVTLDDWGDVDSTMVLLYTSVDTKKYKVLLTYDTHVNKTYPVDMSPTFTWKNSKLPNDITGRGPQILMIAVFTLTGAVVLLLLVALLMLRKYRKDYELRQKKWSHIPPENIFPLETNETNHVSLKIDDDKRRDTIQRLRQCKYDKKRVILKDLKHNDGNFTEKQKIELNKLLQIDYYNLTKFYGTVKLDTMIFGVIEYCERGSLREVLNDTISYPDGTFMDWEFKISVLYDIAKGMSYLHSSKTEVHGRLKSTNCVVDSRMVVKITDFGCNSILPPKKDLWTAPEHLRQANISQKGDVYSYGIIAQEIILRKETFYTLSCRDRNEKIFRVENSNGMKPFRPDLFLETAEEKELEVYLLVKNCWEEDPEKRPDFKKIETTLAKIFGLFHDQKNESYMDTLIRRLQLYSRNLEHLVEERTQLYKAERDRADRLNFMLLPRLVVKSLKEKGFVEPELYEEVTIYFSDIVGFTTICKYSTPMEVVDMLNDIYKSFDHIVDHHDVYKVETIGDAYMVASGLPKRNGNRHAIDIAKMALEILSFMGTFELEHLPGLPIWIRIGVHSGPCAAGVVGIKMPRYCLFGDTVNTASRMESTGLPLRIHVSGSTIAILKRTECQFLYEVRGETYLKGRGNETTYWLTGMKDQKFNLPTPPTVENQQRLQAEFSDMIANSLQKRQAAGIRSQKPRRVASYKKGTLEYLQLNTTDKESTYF

NDECELCVNVACTGC (disulfide 4-12, 7-15) [SP-338]
stimulation of cGMP synthesis in T84 cells (peptide at 1.0 µM, 30 min), biological activity relative to SP-304: ~80 % of the biological activity of SP-304

Reference: patent US20100221329A1 (SYNERGY PHARMACEUTICALS, published 2010)
